Columns and labels:
[1] = biological target: T1, Smc4 (S. cerevisiae, UniProt Q12267 1-1418); assay: cryo-EM structure; condensin pentamer (Smc2, Smc4, Brn1, Ycs4, Ycg1) with 80 bp dsDNA, ADP and BeF3; separate maps of the head module and of Ycg1-DNA from one dataset; conditions: both partners purified
T1 construct: Smc4, SMC subunit of budding yeast (S. cerevisiae) condensin, wild type; Only the head domain and proximal coiled coil are resolved in the maps; also called SMC4-3xStrepII
T1 sequence: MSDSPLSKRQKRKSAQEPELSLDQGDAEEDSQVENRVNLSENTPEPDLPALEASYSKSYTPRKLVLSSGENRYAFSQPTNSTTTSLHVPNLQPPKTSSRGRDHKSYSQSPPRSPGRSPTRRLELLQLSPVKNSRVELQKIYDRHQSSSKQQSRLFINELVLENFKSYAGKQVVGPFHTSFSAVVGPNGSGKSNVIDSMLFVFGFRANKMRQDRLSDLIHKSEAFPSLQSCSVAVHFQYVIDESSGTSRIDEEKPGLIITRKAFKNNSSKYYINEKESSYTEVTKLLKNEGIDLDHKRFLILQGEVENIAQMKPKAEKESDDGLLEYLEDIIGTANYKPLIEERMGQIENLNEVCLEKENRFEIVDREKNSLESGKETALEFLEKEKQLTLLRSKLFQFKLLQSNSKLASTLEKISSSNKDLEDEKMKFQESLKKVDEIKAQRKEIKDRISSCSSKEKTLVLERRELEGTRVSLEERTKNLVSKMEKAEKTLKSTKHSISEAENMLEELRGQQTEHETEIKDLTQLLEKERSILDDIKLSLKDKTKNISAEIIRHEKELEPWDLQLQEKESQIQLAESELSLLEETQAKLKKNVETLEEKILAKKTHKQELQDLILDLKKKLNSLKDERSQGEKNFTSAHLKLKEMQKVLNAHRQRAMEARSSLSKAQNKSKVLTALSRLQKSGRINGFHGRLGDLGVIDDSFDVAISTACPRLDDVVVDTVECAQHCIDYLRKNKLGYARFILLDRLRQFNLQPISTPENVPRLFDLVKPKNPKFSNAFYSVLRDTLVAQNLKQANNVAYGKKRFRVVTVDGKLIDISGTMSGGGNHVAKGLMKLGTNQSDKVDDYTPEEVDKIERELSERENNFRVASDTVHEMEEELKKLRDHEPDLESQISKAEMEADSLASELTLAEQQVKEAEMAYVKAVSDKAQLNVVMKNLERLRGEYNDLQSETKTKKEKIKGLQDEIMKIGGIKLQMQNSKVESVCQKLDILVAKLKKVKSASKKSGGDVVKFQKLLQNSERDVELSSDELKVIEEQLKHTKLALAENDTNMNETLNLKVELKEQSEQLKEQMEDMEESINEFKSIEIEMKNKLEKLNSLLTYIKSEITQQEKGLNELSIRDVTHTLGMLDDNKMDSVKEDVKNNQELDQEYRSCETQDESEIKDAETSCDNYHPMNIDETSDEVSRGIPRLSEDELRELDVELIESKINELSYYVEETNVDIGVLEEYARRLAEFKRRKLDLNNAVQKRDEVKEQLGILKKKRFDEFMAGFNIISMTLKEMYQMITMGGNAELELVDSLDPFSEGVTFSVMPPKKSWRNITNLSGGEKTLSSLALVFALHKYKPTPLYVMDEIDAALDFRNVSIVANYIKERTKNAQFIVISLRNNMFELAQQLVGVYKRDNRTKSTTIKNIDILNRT

[2] = biological target: T2, Ycg1 (S. cerevisiae, UniProt Q06680 1-1035); assay: as above; conditions: both partners purified
T2 construct: Ycg1, HAWK subunit of budding yeast (S. cerevisiae) condensin, wild type
T2 sequence: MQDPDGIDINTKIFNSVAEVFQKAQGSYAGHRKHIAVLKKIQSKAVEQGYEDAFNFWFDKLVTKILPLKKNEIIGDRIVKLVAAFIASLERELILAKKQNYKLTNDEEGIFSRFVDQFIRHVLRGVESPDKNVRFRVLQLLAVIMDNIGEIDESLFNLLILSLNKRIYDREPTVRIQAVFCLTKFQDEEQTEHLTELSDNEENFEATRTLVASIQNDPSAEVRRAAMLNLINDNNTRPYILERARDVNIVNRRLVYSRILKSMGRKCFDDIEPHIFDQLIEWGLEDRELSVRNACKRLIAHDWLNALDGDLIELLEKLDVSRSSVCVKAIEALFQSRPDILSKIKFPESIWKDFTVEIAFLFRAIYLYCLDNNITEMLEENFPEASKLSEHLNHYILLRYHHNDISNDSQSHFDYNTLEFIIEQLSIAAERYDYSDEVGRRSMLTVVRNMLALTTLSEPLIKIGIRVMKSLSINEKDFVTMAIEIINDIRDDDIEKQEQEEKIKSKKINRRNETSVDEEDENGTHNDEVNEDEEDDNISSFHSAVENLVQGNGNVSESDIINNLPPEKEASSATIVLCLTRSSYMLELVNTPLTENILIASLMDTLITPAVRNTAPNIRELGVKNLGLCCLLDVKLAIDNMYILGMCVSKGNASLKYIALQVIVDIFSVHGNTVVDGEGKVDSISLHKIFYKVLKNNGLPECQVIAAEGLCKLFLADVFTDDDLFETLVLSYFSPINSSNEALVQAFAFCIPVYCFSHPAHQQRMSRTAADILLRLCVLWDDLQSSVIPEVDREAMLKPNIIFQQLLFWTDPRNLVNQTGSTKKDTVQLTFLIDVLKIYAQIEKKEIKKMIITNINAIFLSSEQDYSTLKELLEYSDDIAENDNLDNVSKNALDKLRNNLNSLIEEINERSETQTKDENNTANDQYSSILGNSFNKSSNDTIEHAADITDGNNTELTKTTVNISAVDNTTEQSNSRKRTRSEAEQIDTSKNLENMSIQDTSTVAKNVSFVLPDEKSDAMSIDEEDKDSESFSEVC

binding result [1]: binds
binding result [2]: binds
B1: Brn1 (natural protein, S. cerevisiae)
chain: MTTQLRYENNDDDERVEYNLFTNRSTMMANFEEWIKMATDNKINSRNSWNFALIDYFYDLDVLKDGENNINFQKASATLDGCIKIYSSRVDSVTTETGKLLSGLAQRKTNGASNGDDSNGGNGEGLGGDSDEANIEIDPLTGMPISNDPDVNNTRRRVYNRVLETTLVEFETIKMKELDQELIIDPLFKKALVDFDEGGAKSLLLNTLNIDNTARVIFDASIKDTQNVGQGKLQRKEEELIERDSLVDDENEPSQSLISTRNDSTVNDSVISAPSMEDEILSLGMDFIKFDQIAVCEISGSIEQLRNVVEDINQAKDFIENVNNRFDNFLTEEELQAAVPDNAEDDSDGFDMGMQQELCYPDENHDNTSHDEQDDDNVNSTTGSIFEKDLMAYFDENLNRNWRGREHWKVRNFKKANLVNKESDLLEETRTTIGDTTDKNTTDDKSMDTKKKHKQKKVLEIDFFKTDDSFEDKVFASKGRTKIDMPIKNRKNDTHYLLPDDFHFSTDRITRLFIKPGQKMSLFSHRKHTRGDVSSGLFEKSTVSANHSNNDIPTIADEHFWADNYERKEQEEKEKEQSKEVGDVVGGALDNPFEDDMDGVDFNQAFEGTDDNEEASVKLDLQDDEDHKFPIRENKVTYSRVSKKVDVRRLKKNVWRSINNLIQEHDSRKNREQSSNDSETHTEDESTKELKFSDIIQGISKMYSDDTLKDISTSFCFICLLHLANEHGLQITHTENYNDLIVNYEDLATTQAAS
notes: Brn1, kleisin subunit of budding yeast (S. cerevisiae) condensin, wild type; also called kleisin Brn1; BRN1-HA3-His12

Source: doi:10.1101/2021.10.29.466484, “Clamping of DNA shuts the condensin neck gate” (bioRxiv, 2021)
